Measured values reported in article PMC10478084, “Use of Epivolve phage display to generate a monoclonal antibody with opsonic activity directed against a subdominant epitope on extracellular loop 4 of Treponema pallidum BamA (TP0326)” (Frontiers in Immunology, 2023).
Where two headings read alike, the source gives them in different places. No end group written: not given here. *: point of attachment. Biotin = O=C1N[C@H]2[C@H](CS[C@H]2CCCCC(=O)*)N1

Assays:
[1] = target: T1, Tp BamA β-barrel (TP0326) (Treponema pallidum subsp. pallidum, …, UniProt O83346)
[2] = target: T2, BamA ECL4 peptide S2, native (Treponema pallidum subsp. pallidum, …)
T2 chain: Biotin-RVVKNFYDKDNNQPFDL

[3] = target: T1, Tp BamA β-barrel (TP0326); experiment: immunoblot; 200 to 1 ng of PfTrx^BamA/ECL4 or of BamA β-barrel (in 8M urea, Laemmli buffer) resolved by SDS-PAGE, transferred to nitrocellulose, probed with mAb at 4 μg/ml; conditions: both partners purified

B1: IGX7128 (antibody, V domains shown)
VH: EVQLVQSGADVKKPGASLTISCQASGYTFTDYWISWVRQKPGKGLEWMGAIAPSTSKTEYGPSFQGHVTISADRSTATAYLQWRSLEASDTAMYYCVRQSAQTDSWGPGTLVTVSS
VL: SYELTQPPSVSVSPGQTARITCSGDALPKKYAYWYQQKSGQAPVLVIYEDRKRYSGIPERFSGSSSGTMATLTISGAQVEDEADYYCYSKAAKGNYMVFGGGTKLTVL
B1: binds [1]; binds [2].

B2: IGX7134 (antibody, V domains shown)
VH: EVQLVQSGAVVKKPGASLTISCQASGYTFTDYWFSWVRQKPGKGLEWMGAIAPSTSKTEYGPSFQGLVTISADRSTATANLQWRSLEASDTAMYYCVRQGAHTDSWGPGTLVTVSS
VL: SYELTQPPSVSVSPGQTARITCSGDALPKKYAYWYQQKSGQAPVLVIYEDRKRYSGIPERFSGSSSGTMATLTISGAQVEDEADYYCYSKAAKGNYMVFGGGTKLTVL
B2: binds [1]; binds [2].

B3: mAb IGX7141 (antibody, V domains shown)
VH: EVQLVQSGADVKKPGASLTISCQASGYTFTDYWISWVRQKPGKGLEWMGAISPANSRTSYGPSFQGHVTFSADRSTATAYLQWRSLEASDTAMYYCVRQGAQTDSWGPGTLVTVSS
VL: SYELTQPPSVSVSPGQTARITCSGDALPKKYAYWYQQKSGQAPVLVIYEDMKRPSGIPERFSGSSSGTMATLTISGAQVEDEADYYCYSKASDGNYFVFGGGTKLTVL
notes: heavy-chain variable region from the Epivolve scFv; mouse IgG2 heavy-chain constant region; light-chain variable region LC3; mouse light-chain constant domain; Mouse IgG2 with variable regions selected from a human scFv phage library (Epivolve) and matured by error-prone PCR; source: HEK293-E, transfected (pTT5), purified from supernatant (Protein A)
B3: binds [3].

B4: mAb IGX7137 (antibody, V domains shown)
VH: EVQLVQSGADVKKPGASLTISCQTSGYTLTDYWISWVRQKPGKGLEWMGAISPANSRTSYGPSFQGHVTFSADRSTATAYLQWRSLEASDTAMYYCVRQGAQTDRWGPGTLVTVSS
VL: SYELTQPPSVSVPPGQTARITCSGDALPKKYAYWYQQKSGQAPVLVIYEDMKRPSGIPERFSGSSSGTTATLTISGAQVEDEADYYCYSKAFDGNYFVFGGGTKLTVL
notes: heavy-chain variable region from the Epivolve scFv; mouse IgG2 heavy-chain constant region; light-chain variable region LC2 (shared with IGX7140); mouse light-chain constant domain; Mouse IgG2 with variable regions from the Epivolve scFv; source: HEK293-E, transfected (pTT5), purified from supernatant (Protein A)
B4: binds [3].

B5: mAb IGX7140 (antibody, V domains shown)
VH: EVQLVQSGADVKKPGASLTISCQASGYTLTDYWISWVRQKPGKGLEWMGAISPANSRTSYGPSFQGHVTFSADRSTATAYLQWRSLEASDTAMYYCVRQGAQTDRWGPGTLVTVSS
VL: SYELTQPPSVSVPPGQTARITCSGDALPKKYAYWYQQKSGQAPVLVIYEDMKRPSGIPERFSGSSSGTTATLTISGAQVEDEADYYCYSKAFDGNYFVFGGGTKLTVL
notes: heavy-chain variable region from the Epivolve scFv; mouse IgG2 heavy-chain constant region; light-chain variable region LC2 (as the light chain of m2); mouse light-chain constant domain; Mouse IgG2 with variable regions from the Epivolve scFv; also called IXG7140; source: HEK293-E, transfected (pTT5), purified from supernatant (Protein A)
B5: binds [3].
